# Experimental data published in article PMC7118173 (Nature Communications, 2020).
# Positions count from the first letter of the chain named. Names may count otherwise.
# B1: SepF: C. glutamicum SepF (cg2363), full-length (protein)
# chain: MSMLKKTKEFFGLAPYEAEHEDAYYADEPRYEGTAAYAPEYRERDYGYAPEAPAPVAPSPAPRSYQSTIVPVELHSFEDAQVIGGAFRDGDAVVFDMSLLSREEARRIVDFAAGLCFALRGKMQKIDSVTFAVVPELSNISTSELERAARIR
# modifications: left off: His6, N-terminal, cleaved | SUMO, N-terminal, cleaved
# B2: SepFK125E/F131A-Scarlet: Scarlet-tagged SepF impaired for FtsZ binding (protein)
# chain: B1 chain with K125E, F131A
# modifications: left off: mScarlet-I, C-terminal, kept
# How the values were obtained:
# WT C. glutamicum = experiment: Number of ring-like structures per cell, overexpression in WT; assay type: cell-based, Corynebacterium glutamicum; details: for ring-like structures per cell: overexpression in WT background
# SepF [1] = experiment: SepF polymerization (turbidity) assay in the presence of SUVs; assay type: biochemical, C. glutamicum; details: SepF (or mutant) plus SUVs 50 µM each, pH 6.9, 25 °C
# Method: When used, FtsZCTD was added at a final concentration of 100 μM.
# Reverse phase evaporation was used to prepare small unilamellar vesicles (SUVs). A 10 mM lipid solution made of an 8:2 mixture of 1-palmitoyl-2-oleoyl phosphatidylcholine (POPC) and 1-palmitoyl-2-oleoylglycero-3-phosphoglycerol (POPG) (Avanti Polar Lipids) was prepared as described. Chloroform was removed by evaporation under vacuum conditions and the dried phospholipid film was resuspended in a mixture of diethyl ether and buffer (25 mM Hepes pH 7.4, 10 mM MgCl2 and 150 mM KCl). Diethyl ether was eliminated by reverse phase evaporation and by slowly decreasing the pressure to the vacuum. SUVs were obtained by sonication during 30 min at 4 °C. The diameter and charge of SUV were determined by measuring dynamic light scattering (DLS) and electrophoretic mobility profiles on a Zetasizer Nano instrument (Malvern Instruments).
# Dynamic light scattering = assay type: physicochemical; details: SUVs + SepF 50 µM each, pH 6.9, 25 °C
# Method: Polydispersity of the samples was measured using Dyna-pro Plate Reader (Wyatt technology) equipped with an 830 nm laser and a temperature control module. The Dynamics software (version 7.9) was used to schedule data acquisition and data analysis. For each well, 20 measurements of 10 s were averaged and this operation was repeated 20 times for each condition at 25 °C. For samples containing FtsZCTD, the peptide was used at a final concentration of 100 µM. All the experiments were carried out as minimum three biological and technical replicates.
# [2] = Negative stain EM of SUVs with SepF; assay type: biochemical; details: end-point of SepF + SUVs reaction, 50 μM
# [3] = Negative stain EM of SepF rings; assay type: physicochemical
# Method: For all samples, 400 mesh carbon coated grids (Electron Microscopy Sciences; CF 400-Cu) were glow-discharged on an ELMO system for 30 sec at 2 mA. 5 µl samples were applied onto the grids and incubated for 30 s, the sample was blotted, washed in 3 drops of water and then stained with 2% (weight/vol) uranyl acetate. Images were recorded on a Gatan UltraScan4000 charged coupled device (CCD) camera (Gatan) on a Tecnai T12 BioTWINLaB6 electron microscope operating at a voltage of 120 kV.
# [4] = system: C. glutamicum ATCC13032 whole-cell extracts; experiment: SepF and FtsZ quantification by Western blot; assay type: cell-based, Corynebacterium glutamicum; details: 60 ugr loaded
# SepF [5] = experiment: Western blots of whole-cell extracts (SepF depletion / expression); assay type: cell-based, C. glutamicum; details: SepF under Ptac, WT
# Method: 24 homogenizer. Crude extracts (120 μg) were analyzed by SDS-PAGE, electro-transferred onto a 0.2 μm Nitrocellulose membrane and blocked with 5% (w/v) skimmed milk. Membranes were incubated with an anti-SepF antibody (produced by Covalab, Supplementary Fig. 25a), an anti-FtsZ antibody (produced by Proteogenix, Supplementary Fig. 25b) or an anti-mNeonGreen antibody (purchased from Chromotek) for 1 h at room temperature.
# FtsZ and SUVs = experiment: Cryo-EM of ternary complex FtsZ-GTP + SepF + SUVs; assay type: biochemical, C. glutamicum; details: 100 μM SUVs, 10 μM SepF, 10 μM FtsZ, 3 mM GTP
# Method: 5 µl of sample were deposited onto glow-discharged lacey carbon copper grids (Ted Pella) and plunge-frozen in liquid ethane using a Leica EM-CPC. Cryo-EM data acquisition was performed on a JEOL 2200FS (Jeol, Japan) 200 kV cryo-electron microscope equipped with an Omega in-column energy filter. High magnification (30,000×, corresponding pixel size 0.32 nm) zero-loss (slit: 20 eV) images were collected at nominal defocus between 1 and 4 µm depending on the experiment on a Gatan USC1000 slow scan CCD camera.
# FtsZ [6] = details: 400 nm, 25 °C, 600 s, 100 mM KCl, 10 mM MgCl2, 25 mM Pipes pH 6.9, 15 µM proteins, GTP
# Method: The mixture was placed into a quartz cuvette with a light path of 10 mm or a 96-well plate and 0.5−2 mM GTP or GMPCPP were added to the reaction mixture. Data acquisition started immediately using an UV–Visible Spectrophotometer (Thermo scientific Evolution 220) during 600 s at 25 °C using 400 nm for excitation and emission and spectra with slits widths of 1 nm or a Varioskan™ LUX plate reader (Thermo Fisher Scientific) with an excitation of 400 nm. Experiments were done in triplicates and measurements were taken every 15 s during 600 s and keeping a constant temperature of 25 °C.
# FtsZ [7] = system: FtsZ
# FtsZ [8] = system: FtsZ; remark: listed apart in the source
# Method: After, 100 µl of the mixture were place in a 96-well-plate that contained GTP at 2 mM final concentration. Reactions were incubated at room temperature for 10 min and 100 µl of the developing reagent was added. The mixture was incubated at room temperature for 25 min to allow development of the green color and absorbance was measured at 620 nm using a Varioskan™ LUX (Thermo Fisher Scientific). Reactions were performed in triplicate for each condition.
# Pino-sepF strain [9] = experiment: Growth curves / complementation of the Pino-sepF strain; details: SepF depletion with 1% myo-inositol, exogenous construct induced
# Method: Positive colonies were grown in BHI media supplemented with 25 µg/ml kanamycin overnight at 30 °C and 120 rpm shaking.
# All strains were plated in CGXII media plates with 4% (w/v) sucrose as a carbon source for 2 days at 30 °C and then single colonies were inoculated in 10 ml of CGXII media 4% (w/v) sucrose overnight at 30 °C and 120 rpm shaking. The next day, 20 ml of CGXII media supplemented with the appropriate repressor or inducer were inoculated with the overnight cultures to a starting OD600 of 1. OD600 measurements were taken every 1.5 h. Each growth curve represents the average of three different growth curves originally from three different single colonies. […] When required, CGXII media 4% (w/v) sucrose was supplemented with either 1% (w/v) myo-inositol, 50 ng/ml tetracycline or 1% (w/v) gluconate and 25 μg/ml kanamycin.
# Pino-sepF strain [10] = experiment: Cell length distribution (violin plots), Pino-sepF strains; assay type: cell-based, Corynebacterium glutamicum; details: 1% myo-inositol + 1% gluconate, t = 6, replicate 1, listed as PgntK_SepF(K125R/F131A)_Scarlet
# Method: For imaging, cultures of C. glutamicum were grown in BHI or minimal medium CGXII during the day, and washed and inoculated into CGXII media for overnight growth. The following day cultures were diluted to OD600 = 1 and grown to the required OD (early exponential phase) for imaging. For HADA labeling, cultures were incubated with 0.5 mM HADA for 20 min at 30 °C in the dark. Two percent agarose pads were prepared with the corresponding growth medium and cells were visualized using a Zeiss Axio Observer Z1 microscope fitted with an Orca Flash 4 V2 sCMOS camera (Hamamatsu), and a Pln-Apo 63×/1.4 oil Ph3 objective. Images were collected using Zen Blue 2.6 (Zeiss) and analyzed using the software Fiji[70] and the plugin MicrobeJ[71] to generate violin plots and fluorescent intensity heatmaps. […] The experiments were performed as biological triplicates.
# Pino-sepF strain [11] = experiment: Scarlet fluorescence localization in the Pino-sepF strain; assay type: cell-based, Corynebacterium glutamicum; details: 1% myo-inositol plus 1% gluconate
# Method: For imaging, cultures of C. glutamicum were grown in BHI or minimal medium CGXII during the day, and washed and inoculated into CGXII media for overnight growth. The following day cultures were diluted to OD600 = 1 and grown to the required OD (early exponential phase) for imaging. For HADA labeling, cultures were incubated with 0.5 mM HADA for 20 min at 30 °C in the dark. Two percent agarose pads were prepared with the corresponding growth medium and cells were visualized using a Zeiss Axio Observer Z1 microscope fitted with an Orca Flash 4 V2 sCMOS camera (Hamamatsu), and a Pln-Apo 63×/1.4 oil Ph3 objective. Images were collected using Zen Blue 2.6 (Zeiss) and analyzed using the software Fiji[70] and the plugin MicrobeJ[71] to generate violin plots and fluorescent intensity heatmaps. Statistical analyses of cell lengths are summarized in Supplementary Tables 5 and 6. The experiments were performed as biological triplicates. Some autofluorescence is observed for wild-type C. glutamicum as shown in Supplementary Fig. 24.
# FtsZ [12] = details: immunoprecipitation coupled to crosslinking; unpaired t-test p 0.004
# Method: Cells were harvested, washed, and normalized by resuspending cell pellets in PBS-T (1X PBS, 0.1% v/v Tween-80) to give a final OD600 of 3. The cell suspensions were cross-linked with 0.25% v/v of formaldehyde for 20 min at 30 °C with gentle agitation. The crosslinking reaction was stopped by adding 1.25 M glycine and incubated for 5 min at room temperature. Cells were resuspended in 50 mM Bis-Tris pH 7.4, 75 mM aminocaproic acid, 1 mM MgSO4, 1× Benzonase, 1× Complete Protease inhibitors cocktail (ROCHE) and disrupted at 4 °C with 0.1 mm glass beads and using a [sequence] 24 homogenizer. After lysis, 0.1% n-Dodecyl-β-D-Maltopyranoside was added and the total extract was incubated for 1 h at 4 °C. Cell lysates were centrifuged at 4 °C for 10 min at 14,000 rpm and the soluble fraction was collected and protein levels quantified.
# Detergent-solubilized protein extracts were incubated with 50 μl of magnetic beads cross-linked with 10 μg of purified anti-Scarlet antibody (produced by Covalab). […] Tryptic peptides from three replicates of each condition were analyzed using a nano-HPLC (Ultimate 3000, Thermo) coupled to a hybrid quadrupole-orbitrap mass spectrometer (Q-Exactive Plus, Thermo). […]
# Patternlab for proteomics was used for label-free quantitation analyses using extracted ion chromatogram (XIC).
molecule,measurement,setting,value
B1,ring-like structures per cell,WT C. glutamicum,multiple-rings phenotype is not observed
same,polymerization with SUVs (turbidity),SepF [1],SepF concentration-dependent polymerization
same,particle size by DLS,Dynamic light scattering,formation of large structures
same,vesicle morphology by EM,[2],lipid vesicles were tubulated
same,ring-like structures by EM,[3],unsuccessful
same,band volume in whole-cell extract,"[4]; ON S (over-night, sucrose)",455544
same,band volume in whole-cell extract,"[4]; ON S+G (over-night, sucrose + gluconate)",420204
same,band volume in whole-cell extract,"[4]; T6 S (6 h, sucrose)",522995
same,band volume in whole-cell extract,"[4]; T6 S+G (6 h, sucrose + gluconate)",618345
same,protein overexpression upon induction,SepF [5],~ 30 fold
same,lipid binding in ternary complex,FtsZ and SUVs,dimeric form of SepF retains lipid-binding capability
same,effect on FtsZ polymerization / bundling,FtsZ [6],strong FtsZ bundling effect
same,FtsZ filament morphology by EM,FtsZ [7],"thick bundles of FtsZ protofilaments, as well as highly curved filaments"
same,effect on GTPase activity of FtsZ,"FtsZ [8]; 15 µM SepF and FtsZ, F test p=0.5872",did not significantly affect the GTPase activity of FtsZ
same,"GTPase activity (phosphate release), mean","FtsZ [8]; 15 µM each, 2 mM GTP, pH 6.9, room temperature, 10 min, mean, n = 11",0.09 nmol
same,complementation of SepF depletion (growth),Pino-sepF strain [9],rescued
B2,mean cell length,Pino-sepF strain [10],9.96
same,localization of Scarlet construct,Pino-sepF strain [11],diffuse in the cytoplasm
same,frequency of cells with n septa (ring-like structures),"WT C. glutamicum; n septa 0, replicate 1",0.122
same,frequency of cells with n septa (ring-like structures),"WT C. glutamicum; n septa 0, replicate 2",0.074
same,frequency of cells with n septa (ring-like structures),"WT C. glutamicum; n septa 0, replicate 3",0.099
same,frequency of cells with n septa (ring-like structures),"WT C. glutamicum; n septa 1, replicate 1",0.227
same,frequency of cells with n septa (ring-like structures),"WT C. glutamicum; n septa 1, replicate 2",0.25
same,frequency of cells with n septa (ring-like structures),"WT C. glutamicum; n septa 1, replicate 3",0.189
same,frequency of cells with n septa (ring-like structures),"WT C. glutamicum; n septa 2, replicate 1",0.246
same,frequency of cells with n septa (ring-like structures),"WT C. glutamicum; n septa 2, replicate 2",0.193
same,frequency of cells with n septa (ring-like structures),"WT C. glutamicum; n septa 2, replicate 3",0.186
same,frequency of cells with n septa (ring-like structures),"WT C. glutamicum; n septa 3, replicate 1",0.241
same,frequency of cells with n septa (ring-like structures),"WT C. glutamicum; n septa 3, replicate 2",0.22
same,frequency of cells with n septa (ring-like structures),"WT C. glutamicum; n septa 3, replicate 3",0.232
same,frequency of cells with n septa (ring-like structures),"WT C. glutamicum; n septa 4, replicate 1",0.102
same,frequency of cells with n septa (ring-like structures),"WT C. glutamicum; n septa 4, replicate 2",0.152
same,frequency of cells with n septa (ring-like structures),"WT C. glutamicum; n septa 4, replicate 3",0.133
same,frequency of cells with n septa (ring-like structures),"WT C. glutamicum; n septa 5, replicate 1",0.042
same,frequency of cells with n septa (ring-like structures),"WT C. glutamicum; n septa 5, replicate 2",0.077
same,frequency of cells with n septa (ring-like structures),"WT C. glutamicum; n septa 5, replicate 3",0.11
same,frequency of cells with n septa (ring-like structures),"WT C. glutamicum; n septa 6, replicate 1",0.014
same,frequency of cells with n septa (ring-like structures),"WT C. glutamicum; n septa 6, replicate 2",0.03
same,frequency of cells with n septa (ring-like structures),"WT C. glutamicum; n septa 6, replicate 3",0.033
same,frequency of cells with n septa (ring-like structures),"WT C. glutamicum; n septa 7, replicate 1",0.006
same,frequency of cells with n septa (ring-like structures),"WT C. glutamicum; n septa 7, replicate 2",0.003
same,frequency of cells with n septa (ring-like structures),"WT C. glutamicum; n septa 7, replicate 3",0.015
same,ring-like structures per cell,WT C. glutamicum,net increase in the number of ring-like structures per cell
same,fold reduction of FtsZ binding (normalized FtsZ) versus SepF-Scarlet,FtsZ [12],7.2 fold
same,complementation of SepF depletion (growth),Pino-sepF strain [9],completely failed to complement
